Patent US20220195015A1 (published 2022)
Where a chain is given by its changes, count along the chain named.

B1: C573 (antibody, V domains shown)
VH: QVQLQESGPGLVKPSGTLSLTCAVSGGSISTVNWWSWVRQPPGKGLEWIGEIHHSGNTNHNPSLRSRVTISVDKSKNQFSLKLRSVTAADTAVYYCARDGGRPGDAFDLWGQGTMVTVSS
VL: QSALTQPASVSGSPGQSITISCTGTSSDVGGYNYVSWYQQHPGKVPKVMIYDVSNRPSGISNRFSGSKSGNTASLTISGLQAEDEADYYCNSYRSNSTRVFGTGTKVTV
B2: C580 (antibody, V domains shown)
VH: EVQLVQSGAEVKKAGESLKISCNSSGYSFTNYWIAWVRQVPGKGLEWMGIIYLGDSDTRYSPSFQGRVTISADKSISAAYLHWSSLKASDTAIYYCARGGPPGGVKLELTDFWGQGTLVTVSS
VL: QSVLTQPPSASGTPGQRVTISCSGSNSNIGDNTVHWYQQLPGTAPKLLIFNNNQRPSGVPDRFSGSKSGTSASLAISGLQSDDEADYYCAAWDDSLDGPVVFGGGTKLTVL
B3: C594 (antibody, V domains shown)
VH: QVQLVESGGGVVQPGRSLRLSCAASGFTFSSYGMHWVRQAPGKGLEWVAVISDDGSNKYYADSVKGRFTISRDNSKNTLYLQMNSLRAEDTAVYYCAKSWWLSENWFDPWGQGTLVTVSS
VL: EIVMTQSPATLSVSPGERATLSCRASQSVSSNLAWYQQKPGQAPRLLIYGASTRATGIPARFSGTGSGTEFTLTISSLQSEDFAVYYCQQYNNWPLTFGGGTKVEIK
B4: C595 (antibody, V domains shown)
VH: B3 VH with P14A, Y32F, M34L, S56A, E89D, V93K
VL: B3 VL with S30R, T65S, E70D
B5: C567 (antibody, V domains shown)
VH: QVQLQESGPGLVKPSETLSLTCTVSGGSVINGSYYWSWIRQPPGKGLEWIGFVYYSGSTNYNPSLKSRVTISVDTSKNQFSLNLNSVTAADTAVYYCATGSKSSYYFDYWGQGTLVTVSS
VL: QSVLTQPPSVSAAPGQKVTISCSGSSSNIGNNYVSWYQQLPGAAPKLLIYENNMRPSGIPDRFSGSKSGTSATLGITGLQTGDEADYYCGTWDSSLSVPYVFGTGTRVTVL
B6: C566 (antibody, V domains shown)
VH: QVQLQESGPGLVKSSQTLSLNCSVFGASISSGGYYWTWIRQHPGKGLEWIGYIHYRGTYYNPSLKSRVTMSVDTSKNQFSLKVRSVSAADTAIYYCARAIVVVTLNWFDLWGQGTLVTVSS
VL: NFMLTQPHSVSESPGKTVTISCSGSGGSIASNYVQWYQQRPGSAPTAVIYEDNQRPSGVPDRFSGSIDSSSNSASLTISGLKTEDEADYYCQSYDTSNPVIFGGGTKLTV
B7: C577 (antibody, V domains shown)
VH: QVQLVQSGAEVKKPGSSVKVSCKASGDTFSIYAFSWVRQAPGQGLQWMGAIIPLLGTTNYAQKFLGRVTITADESTSTTFMELSSLTSEDTAVYHCATFHVAYGDYIPFDSWGQGTLVIVSS
VL: not shown
B8: C572 (antibody, V domains shown)
VH: EVQLVESGGGLIKPGRSLRLSCTASGFTFGDYAMTWFRQAPGKGLEWVGFIRSKAYGGTTGYAASVKYRFTISRDDSKSIAYLQMDSLKTEDTAVYYCTRWDGWSQHDYWGQGTLVTVSS
VL: DIVMTQSPLSLSVTPGEPASISCRSSQSLLHSNGNNYFDWYLQKPGQSPQLLIYLASNRASGVPDRFSGSGSGTDFTLKISRVEAEDVGVYYCMQVLQIPYTFGQGTKLEI
B9: C531 (antibody, V domains shown)
VH: EVQLVESGGGLVQPGRSLRLSCVATGFTFDDFAMHWVRQAPGKGLEWVSGISWNGGIIGYVDSVKGRFTISRDNAKNSLYLQMNSLRPEDTALYYCVKGYRYYYDILTGYYNDAGAFDYWGQGTLVTVSS
VL: DIQSTQSPSFLSASVGDRVAITCRASQGISSYLAWYQQKPGKAPKLLIYPASTLQSGVPSGFSGSGSGTEFTLTISSLQPEDFATYYCQQLNDYPFTFGPGTKVDIK
B10: C574 (antibody, V domains shown)
VH: QVQLVQSGAEVKKPGASVKVSCKASGYTFTSYGFSWVRQAPGQGLEWLGWISAYNGNTNYAQKLQGRVTMTTDTSTSTAYMELRSLRSDDTAVYYCARAIAVAGTSGEFDYWGQGTLVTVSS
VL: not shown
B11: C591 (antibody, V domains shown)
VH: QVQLVQSGAEVKKPGASVKVSCKASGYILTDYFIHWVRQAPGQGLEWMGWINPNSGGTNYAQKFQGRVTMTRDTSISTAYMELSRLRSDDTAVYHCARYKGTTVNTNYYYGMDVWGQGTTVTVSS
VL: not shown
B12: C592 (antibody, V domains shown)
VH: B11 VH with I28T, L29F, I34N, Y60S, S77T, A79V, H95Y
VL: SYELTQPPSVSVSPGQTASITCSGDKLRNKYACWYQQKAGQSPMLVIYQDTKRPSGIPERFSGSNSGNTATLTISGTQAMDEADYYCQAWDISTVVFGGGTKLTVL
B13: C565 (antibody, V domains shown)
VH: EVQLVESGGGLIQPGGSLRLSCAASGLIVSSNYMNWVRQAPGKGLEWVSLLYSGGSTYYADSVKGRFTISRDNSKNTLYLQMNSLRPEDTAVYYCARDLSVVGAFDIWGQGTMVTVSS
VL: EIVLTQSPGTLSLSPGERATLSCRASQSLPSTYLAWYQQKRGQAPRLLIYGASSRATGIPDRFSGSGSGTDFTLTISRLEPEDFAVYYCQQYGTSPRVTFGPGTKVDIK
B14: C571 (antibody, V domains shown)
VH: EVQLVESGGGLIQPGGSLKLSCVVSGFTVSRNYISWVRQAPGKGLEWVSVLFAGGSTFYADSVKGRFAISRDNSNNTLFLQMNSLRVEDTAIYYCARGDGELIFDQWGQGTLVTVSS
VL: QSVLTQPPSVSGAPGQRVTIVCTGTSSNIGAGYDVHWYQQLPGRAPKVLVSGNNIRPSEVPDRFSGSRSGTSASLAITSLQPEDEAQYYCQSYDSNLYAVFGGGTKLTVL
B15: C576 (antibody, V domains shown)
VH: QVQLVQSGAEVKKPGSSVKVSCKASGGTFSIYAISWVRQAPGQGLEWMGGIIPILGTANYAQKFQGRVTITADESTSTAYMELSSLRSEDTAVYYCASFHVAYGDYIPFDYWGQGTLVTVSS
VL: not shown
B16: C578 (antibody, V domains shown)
VH: QVQLVESGGGVVQPGRSLRLSCAASGFTFSSSGMHWVRQAPGKGLEWVAIISYDGSNKYYADSVKGRFTISRDNSKNTLSLQMNSLRAEDTAVYYCAKDPLPFRDFFYYYMDVWGKGTTVTVSS
VL: QSALTQPASVSGSPGQSITISCTGTSSDVGGYNYVSWYQQHPGKAPKLMIYDVSNRPSGVSNRFSGSKSGNTASLTISGLQAEDEADYYCSSYTSSSTLGVFGTGTKVTVL
B17: C568 (antibody, V domains shown)
VH: QVQLVQSGAEVKKPGASVKVSCTASGYTFSSYYIHWVRQAPGQGLEWMGIINPGAGSTSYAQKFQGRVAMTTDTSTRTVYMELSSLRSDDTAVYYCARDEAFLPSAIFVGDYWGQGTLVTVSS
VL: DIQMTQSPSSLSASVGDRVTITCRASQGIRNDLGWYQQKPGKAPKRLIYAASNLQSGVPSRFSGSGSGTEFTLTISSLQPEDFATYYCLQHSTYPHTWTFGQGTKVEIK
B18: C581 (antibody, V domains shown)
VH: EVQLVQSGAEVKKPGESLKISCKGSGYRFTSYWIAWVRQMPGKGLEWMGIIYPGDSDTRYSPSFQGQVTISADQSISTAYLQWSSLKASDTAMYYCARGGPPGGVKLELTDYWGQGALVTVSS
VL: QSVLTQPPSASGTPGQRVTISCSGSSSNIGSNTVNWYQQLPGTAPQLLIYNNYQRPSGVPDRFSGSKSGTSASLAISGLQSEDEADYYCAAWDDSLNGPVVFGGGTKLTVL
B19: C569 (antibody, V domains shown)
VH: QVQLVESGGNVVQPGRSLRLSCAASGFTFSNYGMHWIRQAPGKGLEWVAVISYDGSDKYYADSVKGRVTISRDNSKNTLYLQMNSLRAEDTAVYYCAKGGPYGDHVRSDYWGLGTLVTVSS
VL: DIQMTQSPSSLSASVGDRVTITCQASQDISNYLNWYQQKPGKVPKLLIYDASNLETGVPSRFSGSGSGTDFTFTISSLQPEDIATYYCQQFHNLPLTFGQGTKLEIK

molecular target: SARS-CoV-2 spike receptor binding domain (RBD), wild type (SARS-CoV-2, UniProt P0DTC2 319-539); experiment: ELISA, RBD protein coated, mAb titrated

How did the EC50 turn out when B1 was run?
The EC50 was 2.2 ng/mL.

For B2, which EC50 is on record?
The EC50 was 1.81 ng/mL.

For B3, which EC50 is on record?
The EC50 was 2.63 ng/mL.

Which EC50 does the source give for B4 here?
Its EC50 is 2.04 ng/mL.

Which EC50 does the source give for B5 here?
The EC50 was 18.9 ng/mL.

For B6, which EC50 is on record?
Its EC50 is 5.88 ng/mL.

How did the EC50 turn out when B7 was run?
The EC50 was 1.32 ng/mL.

For B8, which EC50 is on record?
The EC50 was 2.9 ng/mL.

How did the EC50 turn out when B9 was run?
Its EC50 is 6.84 ng/mL.

For B10, which EC50 is on record?
The EC50 was 8.12 ng/mL.

B11 was tested. Which EC50 did it give?
The EC50 was 3.83 ng/mL.

Which EC50 does the source give for B12 here?
The EC50 was 6 ng/mL.

B13 was tested. Which EC50 did it give?
The EC50 was 1.27 ng/mL.

How did the EC50 turn out when B14 was run?
Its EC50 is 4.62 ng/mL.

Which EC50 does the source give for B15 here?
The EC50 was 5.29 ng/mL.

Which EC50 does the source give for B16 here?
Its EC50 is 1.08 ng/mL.

For B17, which EC50 is on record?
Its EC50 is 5.99 ng/mL.

B18 was tested. Which EC50 did it give?
The EC50 was 1.58 ng/mL.

For B19, which EC50 is on record?
The EC50 was 11.1 ng/mL.
